Experimental data from patent US20200157212A1 (Pfizer, published 2020).

T1: Cynomolgus monkey ROBO2 overexpressed on HEK293 cells (cynomolgus monkey, UniProt Q9HCK4 22-1378 (human entry))
T1 chain: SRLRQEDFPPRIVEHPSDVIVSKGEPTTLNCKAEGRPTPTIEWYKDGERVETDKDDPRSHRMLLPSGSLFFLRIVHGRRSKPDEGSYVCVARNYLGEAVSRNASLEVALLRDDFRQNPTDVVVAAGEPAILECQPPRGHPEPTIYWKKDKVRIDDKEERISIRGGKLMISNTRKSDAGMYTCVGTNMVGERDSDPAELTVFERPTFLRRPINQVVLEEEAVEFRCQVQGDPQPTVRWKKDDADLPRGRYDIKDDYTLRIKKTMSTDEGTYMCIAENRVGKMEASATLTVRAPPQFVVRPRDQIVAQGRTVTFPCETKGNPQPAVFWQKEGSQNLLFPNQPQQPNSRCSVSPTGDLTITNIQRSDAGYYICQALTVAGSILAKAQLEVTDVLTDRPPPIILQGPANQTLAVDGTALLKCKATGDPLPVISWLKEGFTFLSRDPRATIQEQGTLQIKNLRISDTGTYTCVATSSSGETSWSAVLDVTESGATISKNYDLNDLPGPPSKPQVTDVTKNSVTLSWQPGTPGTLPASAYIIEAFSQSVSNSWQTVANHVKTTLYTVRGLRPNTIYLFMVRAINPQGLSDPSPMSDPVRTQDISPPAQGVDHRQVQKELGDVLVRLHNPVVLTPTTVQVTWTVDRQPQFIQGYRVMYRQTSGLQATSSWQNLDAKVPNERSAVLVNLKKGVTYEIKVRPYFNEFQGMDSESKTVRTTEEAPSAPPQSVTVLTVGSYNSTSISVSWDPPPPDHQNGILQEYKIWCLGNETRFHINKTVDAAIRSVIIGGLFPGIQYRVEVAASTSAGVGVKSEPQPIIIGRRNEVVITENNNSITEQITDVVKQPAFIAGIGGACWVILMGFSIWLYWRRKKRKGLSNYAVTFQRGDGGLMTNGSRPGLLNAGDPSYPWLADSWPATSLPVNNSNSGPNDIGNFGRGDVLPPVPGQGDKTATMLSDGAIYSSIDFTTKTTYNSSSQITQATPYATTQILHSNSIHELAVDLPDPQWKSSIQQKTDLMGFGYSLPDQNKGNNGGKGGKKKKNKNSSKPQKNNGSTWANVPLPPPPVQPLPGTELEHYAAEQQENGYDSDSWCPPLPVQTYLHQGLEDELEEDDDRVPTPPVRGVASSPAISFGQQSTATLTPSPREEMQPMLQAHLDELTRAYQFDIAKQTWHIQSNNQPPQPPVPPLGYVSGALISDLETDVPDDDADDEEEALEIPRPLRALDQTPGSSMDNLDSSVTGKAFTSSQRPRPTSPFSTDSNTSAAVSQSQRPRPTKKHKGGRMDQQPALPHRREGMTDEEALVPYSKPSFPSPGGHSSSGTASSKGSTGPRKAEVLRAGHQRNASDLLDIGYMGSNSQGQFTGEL


Tests used:
[1] = biological target: T2, Human ROBO1 RSK mutant overexpressed on HEK293 cells (human, UniProt Q9Y6N7 26-1651); experiment: flow cytometry, HEK293 cells
T2 construct: K137R and R139K already in the entry; also called ROBO1-RSK cells
T2 sequence (Q9Y6N7 other isoform, or with tags, fused parts or gaps mutant limits assumed): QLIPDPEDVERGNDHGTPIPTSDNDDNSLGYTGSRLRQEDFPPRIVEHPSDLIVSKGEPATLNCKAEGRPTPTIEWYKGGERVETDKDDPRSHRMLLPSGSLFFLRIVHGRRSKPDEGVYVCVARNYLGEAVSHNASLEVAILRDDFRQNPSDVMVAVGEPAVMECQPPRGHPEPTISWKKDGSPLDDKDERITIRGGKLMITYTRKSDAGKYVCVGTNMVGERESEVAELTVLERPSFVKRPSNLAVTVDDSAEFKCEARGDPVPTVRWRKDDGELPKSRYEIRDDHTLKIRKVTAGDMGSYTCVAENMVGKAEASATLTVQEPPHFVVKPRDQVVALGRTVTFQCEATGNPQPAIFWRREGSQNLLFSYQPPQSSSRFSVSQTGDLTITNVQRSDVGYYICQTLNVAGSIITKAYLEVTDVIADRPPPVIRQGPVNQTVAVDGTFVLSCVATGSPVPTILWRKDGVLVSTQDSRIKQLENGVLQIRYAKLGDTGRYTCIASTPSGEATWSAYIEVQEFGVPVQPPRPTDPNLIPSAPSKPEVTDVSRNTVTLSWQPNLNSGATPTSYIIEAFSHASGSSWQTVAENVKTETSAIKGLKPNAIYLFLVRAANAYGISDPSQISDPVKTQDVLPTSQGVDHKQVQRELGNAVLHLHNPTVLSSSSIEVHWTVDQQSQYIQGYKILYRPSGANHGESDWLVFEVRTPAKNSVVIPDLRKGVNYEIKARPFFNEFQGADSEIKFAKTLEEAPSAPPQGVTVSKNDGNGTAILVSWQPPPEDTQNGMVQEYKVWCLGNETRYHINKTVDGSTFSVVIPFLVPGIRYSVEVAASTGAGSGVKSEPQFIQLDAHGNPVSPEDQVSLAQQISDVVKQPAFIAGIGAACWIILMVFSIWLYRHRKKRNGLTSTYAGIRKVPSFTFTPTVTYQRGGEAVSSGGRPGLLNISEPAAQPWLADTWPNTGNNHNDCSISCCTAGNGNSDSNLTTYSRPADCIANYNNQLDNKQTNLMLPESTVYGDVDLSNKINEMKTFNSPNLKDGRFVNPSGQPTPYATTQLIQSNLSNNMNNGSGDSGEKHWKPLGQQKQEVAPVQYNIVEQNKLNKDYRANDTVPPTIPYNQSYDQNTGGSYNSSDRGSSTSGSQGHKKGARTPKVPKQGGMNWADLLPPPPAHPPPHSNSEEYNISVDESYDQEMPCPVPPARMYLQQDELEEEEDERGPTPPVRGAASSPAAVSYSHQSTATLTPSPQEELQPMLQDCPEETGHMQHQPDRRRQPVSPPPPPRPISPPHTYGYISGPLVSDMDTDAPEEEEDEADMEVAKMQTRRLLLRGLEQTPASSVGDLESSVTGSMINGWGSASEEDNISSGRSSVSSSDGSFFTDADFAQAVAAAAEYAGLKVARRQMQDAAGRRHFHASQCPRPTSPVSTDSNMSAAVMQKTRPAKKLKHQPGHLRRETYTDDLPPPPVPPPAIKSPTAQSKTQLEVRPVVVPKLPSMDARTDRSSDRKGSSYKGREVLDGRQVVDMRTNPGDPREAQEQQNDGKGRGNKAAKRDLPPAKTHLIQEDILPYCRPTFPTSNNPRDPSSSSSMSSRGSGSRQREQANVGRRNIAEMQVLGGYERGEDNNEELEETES
Procedure: (§1) Using flow cytometry, improvement in the binding EC₅₀ to human ROBO2 relative to the parental 93H2 was evaluated. Starting at 6.7 nM, 11-point, 3-fold dilution series were made for each antibody and used to stain HEK293 overexpressing human ROBO2 as described above for the ROBO2 fold selectivity (Example 2). […] In addition to measuring improved binding to human ROBO2, it was important to ensure that high affinity binding to both cynomolgus monkey ROBO2 and rat ROBO2 was maintained. Using HEK293 cells overexpressing either cynomolgus monkey ROBO2 or rat ROBO2, the relative dose-dependent binding of 93H2, Abcs25 and Abcs35 was evaluated as described above. High affinity binding to both cynomolgus monkey and rat ROBO2 was maintained in Abcs25 and Abcs35 (Table 4). […] Briefly, Abcs35 was immobilized to 300 resonance units (RU) on a CM5 chip. Association of ROBO2 Ig1-Ig2-His (ROBO2) was measured over 5 minutes and dissociation was followed for a period of 10 minutes.
(§2) The binding profile of Abcs35-J compared to Abcs35 was determined for human ROBO2, orthologs from cynomolgus monkey and rat, human ROBO1 and specificity for the RSK epitope from ROBO2 but not KSR from ROBO1. Binding was assessed by flow cytometry as described in Examples 2 (homolog specificity), Example 3 (ortholog reactivity) and Example 5 (RSK vs KSR epitope specificity). […] Binding of the antibodies was detected using a secondary fluorochrome conjugated anti-human IgG F(ab′)₂ antibody and samples analyzed on a Fortessa cytometer (BD Biosciences).

[2] = biological target: T1, Cynomolgus monkey ROBO2 overexpressed …; experiment: flow cytometry, HEK293 cells
Procedure: as §1, §2

Binder | EC50 [1] | EC50 [2]
Abcs35 (antibody, human IgG1, kappa, fully human IgG1; VH of Ab96 with VL of Ab123) heavy: EVQLVQSGAEVKKPGASVKVSCKASGYTFTGYYMHWVRQAPGQGLEWMGWINPKNGDTEFPQKFQGRVTMTRDTSITTAYMDLSRLRSDDTAVYYCARESGDDAFDIWGQGTMVTVSSASTKGPSVFPLAPSSKSTSGGTAALGCLVKDYFPEPVTVSWNSGALTSGVHTFPAVLQSSGLYSLSSVVTVPSSSLGTQTYICNVNHKPSNTKVDKKVEPKSCDKTHTCPPCPAPEAAGAPSVFLFPPKPKDTLMISRTPEVTCVVVDVSHEDPEVKFNWYVDGVEVHNAKTKPREEQYNSTYRVVSVLTVLHQDWLNGKEYKCKVSNKALPAPIEKTISKAKGQPREPQVYTLPPSREEMTKNQVSLTCLVKGFYPSDIAVEWESNGQPENNYKTTPPVLDSDGSFFLYSKLTVDKSRWQQGNVFSCSVMHEALHNHYTQKSLSLSPGK light: DIVMTQSPSSLSASVGDRVTITCRASQSISSYLNWYQQKPGKAPKLLIYAASSLQSGVPSRFSGSGSGTDFTLTISSLQPEDFATYYCQQSVGLFFGGGTKVEIKRTVAAPSVFIFPPSDEQLKSGTASVVCLLNNFYPREAKVQWKVDNALQSGNSQESVTEQDSKDSTYSLSSTLTLSKADYEKHKVYACEVTHQGLSSPVTKSFNRGEC | 0.077 nM | 0.111 nM
Abcs35-J (antibody, human IgG1, kappa, germlined variant of Abcs35; also called ABCS-J) heavy: EVQLVQSGAEVKKPGASVKVSCKASGYTFTGYYMHWVRQAPGQGLEWMGWINPKNGDTEFPQKFQGRVTMTRDTSITTAYMELSRLRSDDTAVYYCARESGDDAFDIWGQGTMVTVSSASTKGPSVFPLAPSSKSTSGGTAALGCLVKDYFPEPVTVSWNSGALTSGVHTFPAVLQSSGLYSLSSVVTVPSSSLGTQTYICNVNHKPSNTKVDKKVEPKSCDKTHTCPPCPAPEAAGAPSVFLFPPKPKDTLMISRTPEVTCVVVDVSHEDPEVKFNWYVDGVEVHNAKTKPREEQYNSTYRVVSVLTVLHQDWLNGKEYKCKVSNKALPAPIEKTISKAKGQPREPQVYTLPPSREEMTKNQVSLTCLVKGFYPSDIAVEWESNGQPENNYKTTPPVLDSDGSFFLYSKLTVDKSRWQQGNVFSCSVMHEALHNHYTQKSLSLSPGK light: not shown | 0.079 nM | 0.099 nM
